In patent US20230372448A1, “THERAPEUTIC USE OF LONG-ACTING CONJUGATE OF TRIPLE AGONIST ACTING ON ALL OF GLUCAGON, GLP-1 AND GIP RECEPTORS AGAINST MULTIPLE SCLEROSIS” (HANMI PHARM. CO. ,LTD., priority 2020, published 2023):
Positions of bridges follow the written chain, without caps; N, C: chain ends. Non-standard residues stand in square brackets, D forms with d. No end group written: not given here. Aib = CC(C)(N)C(=O)O

Key:
Test in all cases: cell-based or functional assay
human GIP receptor = biological target: T1, human GIP receptor (human, UniProt P48546 22-466)
T1 sequence (looked up): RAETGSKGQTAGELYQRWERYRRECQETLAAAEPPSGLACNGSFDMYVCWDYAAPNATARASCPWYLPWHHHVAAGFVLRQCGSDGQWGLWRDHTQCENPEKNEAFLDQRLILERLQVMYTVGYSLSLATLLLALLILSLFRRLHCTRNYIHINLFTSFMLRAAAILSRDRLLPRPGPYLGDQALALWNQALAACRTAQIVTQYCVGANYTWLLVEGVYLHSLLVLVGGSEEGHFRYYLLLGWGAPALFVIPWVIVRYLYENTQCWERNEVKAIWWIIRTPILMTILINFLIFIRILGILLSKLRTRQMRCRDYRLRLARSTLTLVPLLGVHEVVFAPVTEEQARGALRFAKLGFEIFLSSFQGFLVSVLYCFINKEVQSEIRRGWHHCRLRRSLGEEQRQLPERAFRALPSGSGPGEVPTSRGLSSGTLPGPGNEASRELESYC

human GCG receptor = human GCG receptor (human, UniProt P47871 26-477)
Chain of human GCG receptor (P47871 26-477): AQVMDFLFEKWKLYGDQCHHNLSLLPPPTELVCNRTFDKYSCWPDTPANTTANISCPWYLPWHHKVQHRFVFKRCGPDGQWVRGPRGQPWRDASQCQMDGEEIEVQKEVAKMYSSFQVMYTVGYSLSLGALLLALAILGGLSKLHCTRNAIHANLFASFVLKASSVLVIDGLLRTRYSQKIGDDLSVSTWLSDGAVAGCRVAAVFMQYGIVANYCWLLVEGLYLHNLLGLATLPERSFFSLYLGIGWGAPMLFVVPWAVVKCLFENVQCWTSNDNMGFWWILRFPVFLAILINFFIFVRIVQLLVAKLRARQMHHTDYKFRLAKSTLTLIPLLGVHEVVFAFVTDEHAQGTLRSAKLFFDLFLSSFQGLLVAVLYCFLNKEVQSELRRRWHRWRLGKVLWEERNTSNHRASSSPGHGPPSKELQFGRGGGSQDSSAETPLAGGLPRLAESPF

human GLP-1 receptor = human GLP-1 receptor (human, UniProt P43220 24-463)

B1: triple agonist of SEQ ID NO: 27 (peptide)
peptide: H[Aib]QGTFTSDYSKYLDERACQDFVQWLLDQGGPSSGAPPPS
modifications: not fully specified
Human GIP receptor
  In vitro activity (%) compared with native peptide: vs GIP: 0.9%
Human GCG receptor
  In vitro activity (%) compared with native peptide: vs Glucagon: 0.8%
Human GLP-1 receptor
  In vitro activity (%) compared with native peptide: vs GLP-1: 83.1%

B2: triple agonist of SEQ ID NO: 30 (peptide)
peptide: H[Aib]QGTFTSDYSKYLDEKAQKEFVQWLLDTC
modifications: bridge 16-20; not fully specified
Human GIP receptor
  In vitro activity (%) compared with native peptide: vs GIP: 0.8%
Human GCG receptor
  In vitro activity (%) compared with native peptide: vs Glucagon: 0.7%
Human GLP-1 receptor
  In vitro activity (%) compared with native peptide: vs GLP-1: 142%

B3: triple agonist of SEQ ID NO: 23 (peptide)
peptide: Y[Aib]QGTFTSDYSKYLDECRAKEFVQWLLAQKGKKNDWKHNIT
modifications: bridge 16-20; not fully specified
Human GIP receptor
  In vitro activity (%) compared with native peptide: vs GIP: < 0.1%
Human GCG receptor
  In vitro activity (%) compared with native peptide: vs Glucagon: 9.3%
Human GLP-1 receptor
  In vitro activity (%) compared with native peptide: vs GLP-1: 4.01%

B4: triple agonist of SEQ ID NO: 21 (peptide)
peptide: Y[Aib]QGTFTSDYSKYLDECRAKEFVQWLLDHHPSSGQPPPS
modifications: bridge 16-20; not fully specified
Human GIP receptor
  In vitro activity (%) compared with native peptide: vs GIP: 22.7%
Human GCG receptor
  In vitro activity (%) compared with native peptide: vs Glucagon: 267%
Human GLP-1 receptor
  In vitro activity (%) compared with native peptide: vs GLP-1: 17.8%

B5: triple agonist of SEQ ID NO: 22 (peptide)
peptide: Y[Aib]QGTFTSDYSKCLDEKRAKEFVQWLLDHHPSSGQPPPS
modifications: bridge 16-20; not fully specified
Human GIP receptor
  In vitro activity (%) compared with native peptide: vs GIP: 59.7%
Human GCG receptor
  In vitro activity (%) compared with native peptide: vs Glucagon: 140%
Human GLP-1 receptor
  In vitro activity (%) compared with native peptide: vs GLP-1: 20.1%

B6: triple agonist of SEQ ID NO: 28 (peptide)
peptide: H[Aib]QGTFTSDYSKYLDEKRAQEFVCWLLAQKGKKNDWKHNIT
modifications: not fully specified
Human GIP receptor
  In vitro activity (%) compared with native peptide: vs GIP: < 0.1%
Human GCG receptor
  In vitro activity (%) compared with native peptide: vs Glucagon: 1.6%
Human GLP-1 receptor
  In vitro activity (%) compared with native peptide: vs GLP-1: 17.2%

B7: triple agonist of SEQ ID NO: 24 (peptide)
peptide: Y[Aib]QGTFTSDYSKYLDECRAKEFVQWLKNGGPSSGAPPPS
modifications: bridge 16-20
Human GIP receptor
  In vitro activity (%) compared with native peptide: vs GIP: < 0.1%
Human GCG receptor
  In vitro activity (%) compared with native peptide: vs Glucagon: 9.3%
Human GLP-1 receptor
  In vitro activity (%) compared with native peptide: vs GLP-1: 41.2%

B8: triple agonist of SEQ ID NO: 25 (peptide)
peptide: H[Aib]QGTFTSDCSKYLDERAAQDFVQWLLDGGPSSGAPPPS
modifications: not fully specified
Human GIP receptor
  In vitro activity (%) compared with native peptide: vs GIP: < 0.1%
Human GCG receptor
  In vitro activity (%) compared with native peptide: vs Glucagon: 0.1%
Human GLP-1 receptor
  In vitro activity (%) compared with native peptide: vs GLP-1: 82.6%

B9: triple agonist of SEQ ID NO: 29 (peptide)
peptide: H[Aib]QGTFTSDYSKYLDEKAAKEFVQWLLNTC
modifications: bridge 16-20; not fully specified
Human GIP receptor
  In vitro activity (%) compared with native peptide: vs GIP: < 0.1%
Human GCG receptor
  In vitro activity (%) compared with native peptide: vs Glucagon: 6%
Human GLP-1 receptor
  In vitro activity (%) compared with native peptide: vs GLP-1: 38.5%

B10: triple agonist of SEQ ID NO: 3 (peptide)
peptide: H[Aib]QGTFTSDVSSYLLGQAAKQFIAWLVKGGGPSSGAPPPSC
modifications: not fully specified
Human GIP receptor
  In vitro activity (%) compared with native peptide: vs GIP: < 0.1%
Human GCG receptor
  In vitro activity (%) compared with native peptide: vs Glucagon: < 0.1%
Human GLP-1 receptor
  In vitro activity (%) compared with native peptide: vs GLP-1: 1.8%

B11: triple agonist of SEQ ID NO: 31 (peptide)
peptide: H[Aib]QGTFTSDYSKYLDEKACKEFVQWLLAQ
modifications: bridge 16-20; not fully specified
Human GIP receptor
  In vitro activity (%) compared with native peptide: vs GIP: 2.4%
Human GCG receptor
  In vitro activity (%) compared with native peptide: vs Glucagon: 2.2%
Human GLP-1 receptor
  In vitro activity (%) compared with native peptide: vs GLP-1: 135%

B12: triple agonist of SEQ ID NO: 26 (peptide)
peptide: H[Aib]QGTFTSDCSKYLDSRAAQDFVQWLLDGGPSSGAPPPS
modifications: not fully specified
Human GIP receptor
  In vitro activity (%) compared with native peptide: vs GIP: < 0.1%
Human GCG receptor
  In vitro activity (%) compared with native peptide: vs Glucagon: 0.2%
Human GLP-1 receptor
  In vitro activity (%) compared with native peptide: vs GLP-1: 64.5%
